Source: US20220402983A1 (Janssen / Centocor, published 2022)
Bridges are numbered along the chain shown (N, C = ends). [ ]: non-standard residue; d: D form. Trp(7-Me) = Cc1cccc2c(C[C@H](N)C(=O)O)c[nH]c12; 2Nal = N[C@@H](Cc1ccc2ccccc2c1)C(=O)O; AEF = NCCOc1ccc(C[C@H](N)C(=O)O)cc1; αMeF = C[C@](N)(Cc1ccccc1)C(=O)O; Pen = CC(C)(S)[C@H](N)C(=O)O; αMeK = C[C@](N)(CCCCN)C(=O)O; Thp = NC1(C(=O)O)CCOCC1

Assays:
[1] = target: T1, human IL-23R (interleukin-23 receptor) (human, UniProt Q5VWK5 24-629); assay: cell-based or functional assay
T1 sequence (looked up): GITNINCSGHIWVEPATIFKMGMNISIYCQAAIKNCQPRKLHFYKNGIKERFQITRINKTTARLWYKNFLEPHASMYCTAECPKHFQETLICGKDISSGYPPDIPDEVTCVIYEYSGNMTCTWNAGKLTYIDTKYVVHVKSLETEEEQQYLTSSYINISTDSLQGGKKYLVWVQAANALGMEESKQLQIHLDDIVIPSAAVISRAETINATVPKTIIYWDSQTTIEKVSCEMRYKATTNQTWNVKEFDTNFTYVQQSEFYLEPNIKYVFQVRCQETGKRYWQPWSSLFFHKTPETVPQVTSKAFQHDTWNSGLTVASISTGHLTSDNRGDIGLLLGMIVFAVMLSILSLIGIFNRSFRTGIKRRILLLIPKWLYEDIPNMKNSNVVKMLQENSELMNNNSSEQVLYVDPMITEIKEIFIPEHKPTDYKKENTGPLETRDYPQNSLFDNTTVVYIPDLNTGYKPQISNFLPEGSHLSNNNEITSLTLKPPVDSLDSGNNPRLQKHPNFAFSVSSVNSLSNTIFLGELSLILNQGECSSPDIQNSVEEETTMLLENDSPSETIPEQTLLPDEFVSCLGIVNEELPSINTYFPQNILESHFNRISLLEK

[2] = target: T1, human IL-23R (interleukin-23 receptor); assay: cell-based or functional assay; remark: listed apart in the source

Binder | NK Cell Assay (nM), IC50, IFN-gamma after IL-23 and IL-18 [1] [nM] | PBMC pSTAT3 IC50 (nM) [2] [nM] | pStat3 HTRF (nM), IC50, DB cells IL23R pSTAT3 cell assay [2] [nM]
Ac-[dR][Pen]NT[Trp(7-Me)]K(Ac)[Pen][AEF][2Nal][Thp]EN[αMeF]-NH2 (disulfide 2-7; SMILES CC(=O)NCCCC[C@@H]1NC(=O)[C@H](Cc2c[nH]c3c(C)cccc23)NC(=O)[C@H]([C@@H](C)O)NC(=O)[C@H](CC(N)=O)NC(=O)[C@@H](NC(=O)[C@@H](CCCNC(=N)N)NC(C)=O)C(C)(C)SSC(C)(C)[C@@H](C(=O)N[C@@H](Cc2ccc(OCCN)cc2)C(=O)N[C@@H](Cc2ccc3ccccc3c2)C(=O)NC2(C(=O)N[C@@H](CCC(=O)O)C(=O)N[C@@H](CC(N)=O)C(=O)N[C@@](C)(Cc3ccccc3)C(N)=O)CCOCC2)NC1=O) [Compound No. 77] | 2.33 | 6.4 | 0.353
Ac-[dR][Pen]NT[Trp(7-Me)]K(Ac)[Pen][AEF][2Nal][Thp]EN[Thp]-NH2 (disulfide 2-7; SMILES CC(=O)NCCCC[C@@H]1NC(=O)[C@H](Cc2c[nH]c3c(C)cccc23)NC(=O)[C@H]([C@@H](C)O)NC(=O)[C@H](CC(N)=O)NC(=O)[C@@H](NC(=O)[C@@H](CCCNC(=N)N)NC(C)=O)C(C)(C)SSC(C)(C)[C@@H](C(=O)N[C@@H](Cc2ccc(OCCN)cc2)C(=O)N[C@@H](Cc2ccc3ccccc3c2)C(=O)NC2(C(=O)N[C@@H](CCC(=O)O)C(=O)N[C@@H](CC(N)=O)C(=O)NC3(C(N)=O)CCOCC3)CCOCC2)NC1=O) [Compound No. 92] | 1.46 | 3.3 | 0.206
Ac-[Pen]NT[Trp(7-Me)]K(Ac)[Pen][AEF][2Nal][αMeK]K(Ac)N[αMeF]-NH2 (disulfide 1-6; SMILES CC(=O)NCCCC[C@@H]1NC(=O)[C@H](Cc2c[nH]c3c(C)cccc23)NC(=O)[C@H]([C@@H](C)O)NC(=O)[C@H](CC(N)=O)NC(=O)[C@@H](NC(C)=O)C(C)(C)SSC(C)(C)[C@@H](C(=O)N[C@@H](Cc2ccc(OCCN)cc2)C(=O)N[C@@H](Cc2ccc3ccccc3c2)C(=O)N[C@@](C)(CCCCN)C(=O)N[C@@H](CCCCNC(C)=O)C(=O)N[C@@H](CC(N)=O)C(=O)N[C@@](C)(Cc2ccccc2)C(N)=O)NC1=O) [Compound No. 76] | 4.01 | 11 | 1.5
